This data set has as its system T1, CC(=O)N[C@@H](C)C(=O)N[C@@H](C)C(=O)N1CCC[C@H]1C(=O)N[C@H](C(=O)N1CCC[C@H]1C(=O)N[C@H](C(=O)N[C@@H](C)C(=O)N[C@@H](C)C(=O)N1CCC[C@H]1C(N)=O)C(C)C)[C@@H](C)O[C@H]1O[C@H](CO)[C@@H](O)[C@H](O)[C@@H]1O.
T1 construct: 595 amino acids from 66: Ser thereof (66: Ser to 660: Thr), respectively; Ig kappa chain secretory signal (N); made in house; host or cells: HEK293T (transient, secreted into serum-free medium)
Put plainly: Substrate specificity and kinetic parameters of solubilized human OMGnT enzyme (L). It counts as biochemical. The conditions noted are these: other: 125 mM MOPS pH7.3, 0.2 mM UDP-GlcNAc, 7.5 mM MnCl2, 37° C., 2 hours, pH 7.3. The method, then:
[…] […] The reaction mixture was then filtered with a filter Ultrafree-MC (Millipore) having a pore size of 0.22 μm to remove solids, and analyzed by Wakopak 5C18-200 column (4.6×250 mm, Wako Pure Chemical Industries, Ltd.). The separation was carried out using concentration gradient with Solution A and Solution B at a flow rate of 1.0 ml/min. […] Peptide detection was carried out at 214 nm, and the radioactivity of each fraction was assayed using a liquid scintillation counter.
The activity of GnT-1 was assayed with a method by Yoshida et al. [Yoshida, S., Suzuki, M., Yamano, S., Takeuchi, M., Ikenaga, H., Kioka, N., Sakai, H., and Komano, T., Glycobiology, (1999), 9, 53–58] as described below. A 20 μl reaction solution was prepared by adding an enzyme source thereto so as to have a final concentration of 100 mM MES (pH 6.0), 20 mM MnCl2, 5 μM Manα1–6(Manα1–3)Manα1–6(Manα1–3)Manβ1–4GlcNAcβ1–4GlcNAc-PA(M5GN2-PA; Takara Shuzo, PA-Sugar Chain 017), 1 mM UDP-GlcNAc, 100 mM GlcNAc, 5 mM AMP, 1% Triton X-100, and 0.2% BSA. The reaction solution was incubated at 37° C. for 1 hour, and the reaction was terminated in boiling water. Thereafter, the reaction solution was analyzed by a reverse phase HPLC (Cosmosil 5C18-AR column) available from Nacalai Tesque. […]

Chain of His-Xpress-sOMGnT(L) (Homo sapiens; M623V) (chain, as listed by the source M623V): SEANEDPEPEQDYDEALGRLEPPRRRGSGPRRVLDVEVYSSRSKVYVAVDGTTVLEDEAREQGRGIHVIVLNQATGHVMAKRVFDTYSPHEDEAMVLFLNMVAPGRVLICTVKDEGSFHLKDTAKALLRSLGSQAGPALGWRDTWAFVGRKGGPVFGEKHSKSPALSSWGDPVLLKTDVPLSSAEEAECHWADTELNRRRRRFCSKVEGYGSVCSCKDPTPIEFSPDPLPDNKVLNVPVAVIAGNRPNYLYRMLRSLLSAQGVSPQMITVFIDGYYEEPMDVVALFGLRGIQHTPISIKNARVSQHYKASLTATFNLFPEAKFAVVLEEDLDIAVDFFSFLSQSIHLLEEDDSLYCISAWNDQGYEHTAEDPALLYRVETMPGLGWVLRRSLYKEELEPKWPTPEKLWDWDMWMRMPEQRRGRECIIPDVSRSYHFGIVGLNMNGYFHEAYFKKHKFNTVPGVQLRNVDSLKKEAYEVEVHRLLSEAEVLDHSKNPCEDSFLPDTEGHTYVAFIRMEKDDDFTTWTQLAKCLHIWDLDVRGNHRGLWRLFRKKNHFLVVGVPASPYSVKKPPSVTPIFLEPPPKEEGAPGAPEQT

On to “His-Xpress-sOMGnT(L) (Homo sapiens; M623V)”, for which the Michaelis constant (Km) turned out to be 1850 µM.

These data come from patent US7217548B2, “N-acetylglucosaminlytransferase and polynucleotide encoding the same” (National Institute of Advanced Industrial Science and …, priority 2000, dated 2007).
